From article PMC12102759 (2025)

B1: AXIN1 peptide 235-250 (Axin-1), 16-mer library wild type / PP2A B56 (PPP2R5A B56 domain, residues 1-486) (parent complex)
chain 1: SGYLPTLNEDEEWKAD
chain 2: not shown

Variants of: B1
Test: proteomic peptide phage display deep mutational scan (ProP-PD DMS): M13 P8 16-mer library selected against immobilised GST-tagged bait for four days (rounds), NGS of the eluted pools per day and pseudo-replica; bait immobilised on MaxiSorp plates (10 µg), library pre-cleared on GST, 2 h binding at 4 °C, five washes; one round per day, days 1-4; value from days 2 and 3

**Q.** chain 1 T6I was tested. Which screen value did it give?
**A.** 0.000627 average fractional NGS count over selection days 2 and 3 (reads of this peptide / all reads for the bait, averaged over …

**Q.** chain 1 T6A was tested. Which screen value did it give?
**A.** 0.000414 average fractional NGS count over selection days 2 and 3 (reads of this peptide / all reads for the bait, averaged over …

**Q.** chain 1 T6P was tested. Which screen value did it give?
**A.** 0.000157 average fractional NGS count over selection days 2 and 3 (reads of this peptide / all reads for the bait, averaged over …

**Q.** Which screen value does the source give for chain 1 T6V here?
**A.** 0.00125 average fractional NGS count over selection days 2 and 3 (reads of this peptide / all reads for the bait, averaged over …

**Q.** Which screen value does the source give for chain 1 N8T here?
**A.** 0.000511 average fractional NGS count over selection days 2 and 3 (reads of this peptide / all reads for the bait, averaged over …

**Q.** chain 1 N8S was tested. Which screen value did it give?
**A.** 0.000146 average fractional NGS count over selection days 2 and 3 (reads of this peptide / all reads for the bait, averaged over …

**Q.** For chain 1 N8I, which screen value is on record?
**A.** 0.00188 average fractional NGS count over selection days 2 and 3 (reads of this peptide / all reads for the bait, averaged over …

**Q.** chain 1 N8A was tested. Which screen value did it give?
**A.** 0.000156 average fractional NGS count over selection days 2 and 3 (reads of this peptide / all reads for the bait, averaged over …

**Q.** Which screen value does the source give for chain 1 N8Y here?
**A.** 0.00143 average fractional NGS count over selection days 2 and 3 (reads of this peptide / all reads for the bait, averaged over …

**Q.** chain 1 N8W was tested. Which screen value did it give?
**A.** 0.000126 average fractional NGS count over selection days 2 and 3 (reads of this peptide / all reads for the bait, averaged over …

**Q.** With chain 1 N8Q as the variant, how does the screen value read?
**A.** 0.00306 average fractional NGS count over selection days 2 and 3 (reads of this peptide / all reads for the bait, averaged over …

**Q.** How did the screen value turn out when chain 1 N8F was run?
**A.** 0.000687 average fractional NGS count over selection days 2 and 3 (reads of this peptide / all reads for the bait, averaged over …

**Q.** chain 1 N8E was tested. Which screen value did it give?
**A.** 0.000839 average fractional NGS count over selection days 2 and 3 (reads of this peptide / all reads for the bait, averaged over …

**Q.** How did the screen value turn out when chain 1 N8P was run?
**A.** 0.000473 average fractional NGS count over selection days 2 and 3 (reads of this peptide / all reads for the bait, averaged over …

**Q.** Which screen value does the source give for chain 1 N8L here?
**A.** 0.000128 average fractional NGS count over selection days 2 and 3 (reads of this peptide / all reads for the bait, averaged over …

**Q.** Which screen value does the source give for chain 1 N8K here?
**A.** 0.000298 average fractional NGS count over selection days 2 and 3 (reads of this peptide / all reads for the bait, averaged over …

**Q.** For chain 1 N8M, which screen value is on record?
**A.** 0.000721 average fractional NGS count over selection days 2 and 3 (reads of this peptide / all reads for the bait, averaged over …

**Q.** chain 1 N8H was tested. Which screen value did it give?
**A.** 0.000177 average fractional NGS count over selection days 2 and 3 (reads of this peptide / all reads for the bait, averaged over …

**Q.** With chain 1 N8V as the variant, how does the screen value read?
**A.** 0.022 average fractional NGS count over selection days 2 and 3 (reads of this peptide / all reads for the bait, averaged over …

**Q.** For chain 1 N8R, which screen value is on record?
**A.** 0.000829 average fractional NGS count over selection days 2 and 3 (reads of this peptide / all reads for the bait, averaged over …

**Q.** How did the screen value turn out when chain 1 L7I was run?
**A.** 0.000349 average fractional NGS count over selection days 2 and 3 (reads of this peptide / all reads for the bait, averaged over …

**Q.** With chain 1 E11M as the variant, how does the screen value read?
**A.** 0.00494 average fractional NGS count over selection days 2 and 3 (reads of this peptide / all reads for the bait, averaged over …

**Q.** How did the screen value turn out when chain 1 E11V was run?
**A.** 0.000234 average fractional NGS count over selection days 2 and 3 (reads of this peptide / all reads for the bait, averaged over …

**Q.** chain 1 E11R was tested. Which screen value did it give?
**A.** 0.000311 average fractional NGS count over selection days 2 and 3 (reads of this peptide / all reads for the bait, averaged over …

**Q.** With chain 1 E11S as the variant, how does the screen value read?
**A.** 0.000584 average fractional NGS count over selection days 2 and 3 (reads of this peptide / all reads for the bait, averaged over …

**Q.** With chain 1 E11Q as the variant, how does the screen value read?
**A.** 0.00516 average fractional NGS count over selection days 2 and 3 (reads of this peptide / all reads for the bait, averaged over …

**Q.** chain 1 E11H was tested. Which screen value did it give?
**A.** 0.000134 average fractional NGS count over selection days 2 and 3 (reads of this peptide / all reads for the bait, averaged over …

**Q.** How did the screen value turn out when chain 1 E11T was run?
**A.** 0.0139 average fractional NGS count over selection days 2 and 3 (reads of this peptide / all reads for the bait, averaged over …

**Q.** With chain 1 E11W as the variant, how does the screen value read?
**A.** 0.000117 average fractional NGS count over selection days 2 and 3 (reads of this peptide / all reads for the bait, averaged over …

**Q.** Which screen value does the source give for chain 1 E11Y here?
**A.** 0.000271 average fractional NGS count over selection days 2 and 3 (reads of this peptide / all reads for the bait, averaged over …

**Q.** chain 1 E11K was tested. Which screen value did it give?
**A.** 0.000202 average fractional NGS count over selection days 2 and 3 (reads of this peptide / all reads for the bait, averaged over …

**Q.** For chain 1 E11N, which screen value is on record?
**A.** 0.00018 average fractional NGS count over selection days 2 and 3 (reads of this peptide / all reads for the bait, averaged over …

**Q.** Which screen value does the source give for chain 1 E11F here?
**A.** 0.00161 average fractional NGS count over selection days 2 and 3 (reads of this peptide / all reads for the bait, averaged over …

**Q.** With chain 1 E11A as the variant, how does the screen value read?
**A.** 0.000236 average fractional NGS count over selection days 2 and 3 (reads of this peptide / all reads for the bait, averaged over …

**Q.** With chain 1 Y3Q as the variant, how does the screen value read?
**A.** 0.000114 average fractional NGS count over selection days 2 and 3 (reads of this peptide / all reads for the bait, averaged over …

**Q.** With chain 1 Y3W as the variant, how does the screen value read?
**A.** 0.00058 average fractional NGS count over selection days 2 and 3 (reads of this peptide / all reads for the bait, averaged over …

**Q.** For chain 1 Y3A, which screen value is on record?
**A.** 0.00043 average fractional NGS count over selection days 2 and 3 (reads of this peptide / all reads for the bait, averaged over …

**Q.** How did the screen value turn out when chain 1 Y3M was run?
**A.** 0.000836 average fractional NGS count over selection days 2 and 3 (reads of this peptide / all reads for the bait, averaged over …

**Q.** How did the screen value turn out when chain 1 Y3F was run?
**A.** 0.000133 average fractional NGS count over selection days 2 and 3 (reads of this peptide / all reads for the bait, averaged over …

**Q.** chain 1 Y3L was tested. Which screen value did it give?
**A.** 0.000544 average fractional NGS count over selection days 2 and 3 (reads of this peptide / all reads for the bait, averaged over …

**Q.** Which screen value does the source give for chain 1 Y3V here?
**A.** 0.00041 average fractional NGS count over selection days 2 and 3 (reads of this peptide / all reads for the bait, averaged over …

**Q.** Which screen value does the source give for chain 1 Y3S here?
**A.** 0.000173 average fractional NGS count over selection days 2 and 3 (reads of this peptide / all reads for the bait, averaged over …

**Q.** chain 1 D16F was tested. Which screen value did it give?
**A.** 0.00025 average fractional NGS count over selection days 2 and 3 (reads of this peptide / all reads for the bait, averaged over …

**Q.** For chain 1 D16Y, which screen value is on record?
**A.** 0.00243 average fractional NGS count over selection days 2 and 3 (reads of this peptide / all reads for the bait, averaged over …

**Q.** With chain 1 D16I as the variant, how does the screen value read?
**A.** 0.000497 average fractional NGS count over selection days 2 and 3 (reads of this peptide / all reads for the bait, averaged over …

**Q.** How did the screen value turn out when chain 1 D16L was run?
**A.** 0.000211 average fractional NGS count over selection days 2 and 3 (reads of this peptide / all reads for the bait, averaged over …

**Q.** For chain 1 D16W, which screen value is on record?
**A.** 0.000506 average fractional NGS count over selection days 2 and 3 (reads of this peptide / all reads for the bait, averaged over …

**Q.** chain 1 D16P was tested. Which screen value did it give?
**A.** 0.000234 average fractional NGS count over selection days 2 and 3 (reads of this peptide / all reads for the bait, averaged over …

**Q.** With chain 1 D16V as the variant, how does the screen value read?
**A.** 0.00077 average fractional NGS count over selection days 2 and 3 (reads of this peptide / all reads for the bait, averaged over …

**Q.** chain 1 D16E was tested. Which screen value did it give?
**A.** 0.000288 average fractional NGS count over selection days 2 and 3 (reads of this peptide / all reads for the bait, averaged over …

**Q.** chain 1 D16Q was tested. Which screen value did it give?
**A.** 0.00121 average fractional NGS count over selection days 2 and 3 (reads of this peptide / all reads for the bait, averaged over …

**Q.** With chain 1 D16G as the variant, how does the screen value read?
**A.** 0.000202 average fractional NGS count over selection days 2 and 3 (reads of this peptide / all reads for the bait, averaged over …

**Q.** For chain 1 D16A, which screen value is on record?
**A.** 0.00219 average fractional NGS count over selection days 2 and 3 (reads of this peptide / all reads for the bait, averaged over …

**Q.** Which screen value does the source give for chain 1 D16M here?
**A.** 0.00821 average fractional NGS count over selection days 2 and 3 (reads of this peptide / all reads for the bait, averaged over …

**Q.** For chain 1 D16N, which screen value is on record?
**A.** 0.000396 average fractional NGS count over selection days 2 and 3 (reads of this peptide / all reads for the bait, averaged over …

**Q.** Which screen value does the source give for chain 1 D16H here?
**A.** 0.0014 average fractional NGS count over selection days 2 and 3 (reads of this peptide / all reads for the bait, averaged over …

**Q.** For chain 1 W13F, which screen value is on record?
**A.** 0.000389 average fractional NGS count over selection days 2 and 3 (reads of this peptide / all reads for the bait, averaged over …

**Q.** chain 1 W13M was tested. Which screen value did it give?
**A.** 0.000138 average fractional NGS count over selection days 2 and 3 (reads of this peptide / all reads for the bait, averaged over …

**Q.** Which screen value does the source give for chain 1 W13Y here?
**A.** 0.000277 average fractional NGS count over selection days 2 and 3 (reads of this peptide / all reads for the bait, averaged over …

**Q.** Which screen value does the source give for chain 1 W13L here?
**A.** 0.000454 average fractional NGS count over selection days 2 and 3 (reads of this peptide / all reads for the bait, averaged over …

**Q.** Which screen value does the source give for chain 1 W13V here?
**A.** 0.000494 average fractional NGS count over selection days 2 and 3 (reads of this peptide / all reads for the bait, averaged over …

**Q.** How did the screen value turn out when chain 1 A15Y was run?
**A.** 0.000791 average fractional NGS count over selection days 2 and 3 (reads of this peptide / all reads for the bait, averaged over …

**Q.** Which screen value does the source give for chain 1 A15V here?
**A.** 0.00273 average fractional NGS count over selection days 2 and 3 (reads of this peptide / all reads for the bait, averaged over …

**Q.** How did the screen value turn out when chain 1 A15M was run?
**A.** 0.00211 average fractional NGS count over selection days 2 and 3 (reads of this peptide / all reads for the bait, averaged over …

**Q.** How did the screen value turn out when chain 1 A15E was run?
**A.** 0.000423 average fractional NGS count over selection days 2 and 3 (reads of this peptide / all reads for the bait, averaged over …

**Q.** chain 1 A15W was tested. Which screen value did it give?
**A.** 0.000559 average fractional NGS count over selection days 2 and 3 (reads of this peptide / all reads for the bait, averaged over …

**Q.** chain 1 A15L was tested. Which screen value did it give?
**A.** 0.00106 average fractional NGS count over selection days 2 and 3 (reads of this peptide / all reads for the bait, averaged over …

**Q.** Which screen value does the source give for chain 1 A15Q here?
**A.** 0.000281 average fractional NGS count over selection days 2 and 3 (reads of this peptide / all reads for the bait, averaged over …

**Q.** Which screen value does the source give for chain 1 A15P here?
**A.** 0.00074 average fractional NGS count over selection days 2 and 3 (reads of this peptide / all reads for the bait, averaged over …

**Q.** chain 1 A15T was tested. Which screen value did it give?
**A.** 0.000294 average fractional NGS count over selection days 2 and 3 (reads of this peptide / all reads for the bait, averaged over …

**Q.** How did the screen value turn out when chain 1 A15G was run?
**A.** 0.000885 average fractional NGS count over selection days 2 and 3 (reads of this peptide / all reads for the bait, averaged over …

**Q.** chain 1 A15F was tested. Which screen value did it give?
**A.** 0.000658 average fractional NGS count over selection days 2 and 3 (reads of this peptide / all reads for the bait, averaged over …

**Q.** Which screen value does the source give for chain 1 A15S here?
**A.** 0.000672 average fractional NGS count over selection days 2 and 3 (reads of this peptide / all reads for the bait, averaged over …

**Q.** How did the screen value turn out when chain 1 A15N was run?
**A.** 0.000145 average fractional NGS count over selection days 2 and 3 (reads of this peptide / all reads for the bait, averaged over …

**Q.** chain 1 A15H was tested. Which screen value did it give?
**A.** 0.00152 average fractional NGS count over selection days 2 and 3 (reads of this peptide / all reads for the bait, averaged over …

**Q.** Which screen value does the source give for chain 1 A15I here?
**A.** 0.000279 average fractional NGS count over selection days 2 and 3 (reads of this peptide / all reads for the bait, averaged over …
